Positions count from the first letter of the chain named. Names and notes keep the numbering of the source.

For this assay, the target named is DENND10 (recombinant, pull-down) (human, UniProt Q8TCE6 1-357). Kind of assay: pull-down.
Chain of DENND10 (recombinant, pull-down) (Q8TCE6 whole entry): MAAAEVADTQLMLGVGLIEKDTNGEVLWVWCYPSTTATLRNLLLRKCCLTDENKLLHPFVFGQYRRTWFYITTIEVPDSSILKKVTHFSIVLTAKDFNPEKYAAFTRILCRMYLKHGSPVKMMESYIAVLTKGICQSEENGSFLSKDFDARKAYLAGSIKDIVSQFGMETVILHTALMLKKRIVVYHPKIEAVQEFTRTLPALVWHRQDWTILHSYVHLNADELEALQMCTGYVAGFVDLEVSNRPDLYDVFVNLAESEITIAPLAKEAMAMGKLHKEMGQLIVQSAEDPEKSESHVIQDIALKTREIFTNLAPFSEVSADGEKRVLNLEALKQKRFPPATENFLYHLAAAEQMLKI

B1: MBP-tagged CCDC22-CCDC93 DBD (complex, human)
chain 1: GAGAKTGAPKGSRFTHSEKFTFHLEPQAQATQVSDVPATSRRPEQVTWAAQEQELESLREQLEGVNRSIEEVEADMKTLGVSFVQAESECRHSKLSTAEREQALRLKSRAVELLPDGTANLAKLQLVVENSAQRVIHLAGQWEKHRVPLLAEYRHLRKLQDCRELES
chain 2: SPEKLGTSQLHRRKVISLNKQIAQKTKHLEELRASHTSLQARYNEAKKTLTELKTYSEKLDKEQAALEKIESKADPSILQNLRALVAMNENLKSQEQEFKAHCREEMTRLQQEIENLKAERAPRGDEKT
As to B1, the binding result is on record as “binds”.

B2: MBP-tagged CCDC22-CCDC93 DBD, CCDC93 E410R (complex, human)
chain 1: B1 chain 1
chain 2: B1 chain 2 with E106R
For B2, the binding result is “binds”.

These data come from article PMC11260360 (Nature structural & molecular biology, 2023).
